Results published in the supplement of paper PMC9732359.
± gives the uncertainty stated by the source.

Test: protein stability index of a GFP-peptide fusion (yeast GPS) (PSI 1-4); higher = more stable; sorted into four equal gates, so the index is relative within each strain
Summary of the method: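 Peptides tiling yeast proteins in 17-residue segments were fused downstream of GFP, with Cherry expressed from the same plasmid. As a pooled library in yeast, mid-log cultures grown in leucine-free medium were sorted into four equal gates by GFP/Cherry fluorescence ratio. Gate plasmids were PCR-amplified and Illumina-sequenced, and barcodes linked reads to strains. Each peptide received a protein stability index equal to the sum of each gate's read frequency times its gate number.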

Sequence | protein stability index (doa10∆) | protein stability index (pdr5∆) | protein stability index (san1∆) | protein stability index (ubr1∆)
AKINEVYNNSKDEYLAQ [NSL1] | 2.83 ± 0.047 | 3.06 ± 0.043 | 2.77 ± 0.048 | 2.75 ± 0.037
QVSNFAPQVYIITKNEN [GAL11] | 2.96 ± 0.16 | 1.98 ± 0.11 | 2.38 ± 0.26 | 1.67 ± 0.084
LIIRCRVVRPKSLDAET [RPO21] | 2.35 ± 0.11 | 2.52 ± 0.09 | 2.22 ± 0.13 | 2.51 ± 0.19
NIDQEGSKQADRMAKYL [PGD1] | 3.4 ± 0.094 | 3.35 ± 0.13 | 2.97 ± 0.087 | 3.17 ± 0.15
ESLQKRELLKSQVEDFT [SIR3] | 3.15 ± 0.045 | 3.22 ± 0.054 | 3.12 ± 0.048 | 3.27 ± 0.043
GENVFLKRISDGLSFGK [SIR3] | 3.26 ± 0.18 | 3.39 ± 0.17 | 3.42 ± 0.075 | 3.54 ± 0.09
AKKTSTSVDGKKRSKVR [HTB2] | 3.05 ± 0.19 | 2.98 ± 0.23 | 2.96 ± 0.27 | 3.31 ± 0.075
DIEVPDVNALKFNNTQR [SNF12] | 2.97 ± 0.1 | 3.29 ± 0.06 | 2.98 ± 0.047 | 3.09 ± 0.051
HRSKKDQDQYLEIAKDF [IRR1] | 3.15 ± 0.14 | 3.21 ± 0.12 | 3.04 ± 0.13 | 3.6 ± 0.27
ETLNDTIERSLIEEEVE [YCS4] | 3.42 ± 0.14 | 3.43 ± 0.082 | 3.31 ± 0.056 | 3.33 ± 0.097
REEAIGFIRGSNKFAEV [SMC3] | 3.01 ± 0.093 | 2.94 ± 0.074 | 2.95 ± 0.094 | 2.67 ± 0.08
LSQNESTRASTVPNLPT [ISW2] | 2.17 ± 0.056 | 2.5 ± 0.063 | 2.46 ± 0.045 | 2.6 ± 0.048
NQTRKAHRNGIKKPKTY [RPL29] | 2.65 ± 0.083 | 2.98 ± 0.072 | 2.92 ± 0.058 | 2.99 ± 0.063
RDDGKRELLVEGYGLRD [RPO31] | 2.4 ± 0.079 | 2.56 ± 0.072 | 2.72 ± 0.077 | 2.74 ± 0.068
SLSRDFVMKTRRRKGIS [SNU114] | 3.25 ± 0.2 | 3.31 ± 0.11 | 3.02 ± 0.074 | 2.77 ± 0.22
NPMVPSSVNEDTFLPPP [PRP8] | 3.05 ± 0.058 | 3.32 ± 0.06 | 3.01 ± 0.04 | 3.1 ± 0.043
TKFKVRGSSSLYTLVIN [RPL38] | 2.08 ± 0.074 | 1.32 ± 0.09 | 1.55 ± 0.13 | 2.13 ± 0.09
KVLAAHTKFEVAIGLNG [RRP40] | 2.44 ± 0.088 | 2.56 ± 0.062 | 2.34 ± 0.072 | 2.89 ± 0.057
FFTIDHFIQKLHTARKI [SIR2] | 1.75 ± 0.09 | 1.71 ± 0.1 | 1.11 ± 0.12 | 1.37 ± 0.12
TPKLQTQLSYLISSSLS [YCS4] | 1.95 ± 0.047 | 2.14 ± 0.052 | 2 ± 0.08 | 2.09 ± 0.046
KDLVEIKKEEGKIDEAA [RPN5] |  |  |  | 3.62 ± 0.22
FNVHEVPRAALEERFDP [YMR129W/POM152] | 3.13 ± 0.067 | 3.15 ± 0.078 | 3.16 ± 0.069 | 3.03 ± 0.079
DIIQGNPLMYSGGNNTA [PCI8] | 3.17 ± 0.082 | 3.13 ± 0.08 | 3.32 ± 0.047 | 3.24 ± 0.072
SNRCIVFSKKEPFPHSK [CSN12] | 2.58 ± 0.052 | 2.85 ± 0.047 | 2.81 ± 0.065 | 2.72 ± 0.043
KERIVRAFLIEEQKIVK [RPL34B] |  |  |  | 2.74 ± 0.12
IDSSNLPLQAQQQLYGG [SWI1] | 2.91 ± 0.057 | 3.1 ± 0.062 | 2.75 ± 0.077 | 2.87 ± 0.043
FETETEVTFKNANIFSS [FAS1] | 3.15 ± 0.042 | 3.36 ± 0.055 | 3.35 ± 0.046 | 3.35 ± 0.037
